Source: the supplement of paper PMC7877785
± gives the uncertainty stated by the source.

Test: self-splicing fitness, log relative to wild type (ln ratio); higher = more splicing; Tetrahymena group I intron in knt gene, E. coli kanamycin selection, DiMSum; sequences stand for … in CUCUCU…GGAGGGAAAAGUUAUCAGGCAUGCACCUGGUAGCUAGUCUUUAAACCAAUAGAUUGCAUCGGUUUAAAAGGCAAGACCGUCAAAUUGCGGGAAAGGGGUCAACAGCCGUUCAGUACCAAGUCUCAGGGGAAACUUUGAGAUGGCCUUGCAAAGGGUAUGGUAAUAAGCUGACGGACAUGGUCCUAACCACGCAGCCAAGUCCUAAGUCAACAGAUCUUCUGUUGAUAUGGAUGCAGUUCACAGACUAAAUGUCGGUCGGGGAAGAUGUAUUCUUCUCAUAAGAUAUAGUCGGACCUCUCCUUAAUGGGAGCUAGCGGAUGAAGUGAUGCAACACUGGAGCCGCUGGGAACUAAUUUGUAUGCGAAAGUAUAUUGAUUAGUUUUGGAGUACUCGUGGUCG
Procedure, shortened: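 A randomised library covering all eight P1ex-region intron nucleotides was built with the intron in the knt kanamycin-resistance gene on pET-22b(+) and held in E. coli BL21(DE3). Cells were grown overnight at 37°C or 30°C on LB agar, with or without 25 μg/mL kanamycin, plus 100 μg/mL carbenicillin, 50 μM IPTG and 0.2% rhamnose, and pooled colonies were amplicon-sequenced on an Illumina HiSeq 2500. DiMSum fitness is the error-weighted combination of wild-type-normalised replicate fold changes, kanamycin versus none.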

Sequence	self-splicing fitness (ln) (30 °C)	self-splicing fitness (ln) (37 °C)
CAAGAGCAAUAUUACGGCCU	-3.5 ± 0.25	-1.27 ± 0.33
CAAGAGCAAUAUUACGGCGU	-3.47 ± 0.34	-1.92 ± 0.21
CAAGAGCAAUAUUACGGCUU	-3.51 ± 0.39	-2.36 ± 0.17
CAAGAGCAAUAUUACGGGAA	-2.06 ± 0.11	-3.01 ± 0.18
CAAGAGCAAUAUUACGGGUC	-3.71 ± 0.21	-2.17 ± 0.17
CAAGAGCAAUAUUACGGUAG	-1.18 ± 0.076	-1.01 ± 0.12
CAAGAGCAAUAUUACGGUCC	-2.01 ± 0.35	-1.76 ± 0.33
CAAGAGCAAUAUUACGUCCU	-3.32 ± 0.43	-2.24 ± 0.29
CAAGAGCAAUAUUACGUCGC	-4.54 ± 0.38	-2.38 ± 0.29
CAAGAGCAAUAUUACGUUAG	-1.97 ± 0.11	-0.995 ± 0.12
CAAUAGCAAUAUUACGACGU	-2.06 ± 0.11	-0.956 ± 0.11
CAAUAGCAAUAUUACGACUC	-3.34 ± 0.24	-0.701 ± 0.12
CAAUAGCAAUAUUACGACUG	-0.326 ± 0.063	-0.0987 ± 0.081
CAAUAGCAAUAUUACGAGGG	-3.54 ± 0.16	-0.649 ± 0.13
CAAUAGCAAUAUUACGCAGA	-3.78 ± 0.42	-2.14 ± 0.18
CAAUAGCAAUAUUACGCAGU	-3.56 ± 0.26	-2.12 ± 0.21
CAAUAGCAAUAUUACGCCAU	-3.21 ± 0.34	-2.43 ± 0.26
CAAUAGCAAUAUUACGCGCG	-0.577 ± 0.094	-0.206 ± 0.1
CAAUAGCAAUAUUACGCUAU	-2.69 ± 0.33	–
CAAUAGCAAUAUUACGCUCG	-0.561 ± 0.074	-0.204 ± 0.092
CAAUAGCAAUAUUACGCUUA	-2.06 ± 0.1	-1.74 ± 0.11

Sequence	self-splicing fitness (ln) (30 °C)	self-splicing fitness (ln) (37 °C)
CAAUAGCAAUAUUACGGAAC	-3.98 ± 0.33	-3.27 ± 0.47
CAAUAGCAAUAUUACGGAGA	-2.75 ± 0.33	-2.08 ± 0.43
CAAUAGCAAUAUUACGGAUU	-3.94 ± 0.2	-3.55 ± 0.3
CAAUAGCAAUAUUACGGGGC	-2.73 ± 0.22	-2.45 ± 0.23
CAAUAGCAAUAUUACGGUAG	-1.34 ± 0.097	-0.488 ± 0.1
CAAUAGCAAUAUUACGUCAA	-3.04 ± 0.22	-2.01 ± 0.28
CAAUAGCAAUAUUACGUCUG	-0.324 ± 0.1	-0.58 ± 0.13
CAAUAGCAAUAUUACGUGCG	-0.75 ± 0.072	-0.0882 ± 0.08
CAAUAGCAAUAUUACGUUCA	-3.43 ± 0.25	-2.59 ± 0.24
CACAAGCAAUAUUACGAAUC	-4.04 ± 0.46	-2.37 ± 0.18
CACAAGCAAUAUUACGAGUA	-1.9 ± 0.085	-0.487 ± 0.078
CACAAGCAAUAUUACGCCGG	-0.875 ± 0.081	-0.35 ± 0.095
CACAAGCAAUAUUACGCCUC	-2.86 ± 0.2	-1.95 ± 0.23
CACAAGCAAUAUUACGCUGC	-5.23 ± 0.32	-2.87 ± 0.21
CACAAGCAAUAUUACGGAGA	-3.31 ± 0.17	-2.65 ± 0.2
CACAAGCAAUAUUACGGAUG	-2.59 ± 0.095	-0.904 ± 0.087
CACAAGCAAUAUUACGGCGG	-0.406 ± 0.042	-0.181 ± 0.052
CACAAGCAAUAUUACGGGAC	-3.48 ± 0.19	-2.86 ± 0.2
CACAAGCAAUAUUACGGGUU	-2.26 ± 0.068	-1.52 ± 0.083
CACAAGCAAUAUUACGUCAU	-3.45 ± 0.14	-2.78 ± 0.15
CACCAGCAAUAUUACGAAAC	–	-2.12 ± 0.31
